Data as given in patent EP3088890B1 (Chugai Seiyaku Kabushiki Kaisha, dated 2020).

T1: GPC3 peptide 61-90 (SEQ ID NO: 4) (human)
T1 construct: Synthetic 30-residue peptide of GPC3
T1 peptide: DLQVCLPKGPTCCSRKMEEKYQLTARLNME

T2: GPC3 peptide 341-370 (SEQ ID NO: 18) (human)
T2 construct: Synthetic 30-residue peptide of GPC3
T2 peptide: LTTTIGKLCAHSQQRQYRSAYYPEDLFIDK

T3: GPC3 peptide 201-230 (SEQ ID NO: 11) (human)
T3 construct: Synthetic 30-residue peptide of GPC3
T3 peptide: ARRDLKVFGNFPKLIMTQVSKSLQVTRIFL

T4: GPC3 peptide 241-270 (SEQ ID NO: 13) (human)
T4 construct: Synthetic 30-residue peptide of GPC3
T4 peptide: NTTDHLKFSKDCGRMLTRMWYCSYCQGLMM

T5: GPC3 peptide 361-390 (SEQ ID NO: 19) (human)
T5 construct: Synthetic 30-residue peptide of GPC3
T5 peptide: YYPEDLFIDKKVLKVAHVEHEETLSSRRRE

T6: GPC3 peptide 101-130 (SEQ ID NO: 6) (human)
T6 construct: Synthetic 30-residue peptide of GPC3
T6 peptide: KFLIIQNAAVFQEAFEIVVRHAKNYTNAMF

T7: GPC3 peptide 381-410 (SEQ ID NO: 20) (human)
T7 construct: Synthetic 30-residue peptide of GPC3
T7 peptide: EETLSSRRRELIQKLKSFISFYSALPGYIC

T8: GPC3 peptide 481-510 (SEQ ID NO: 25) (human)
T8 construct: Synthetic 30-residue peptide of GPC3
T8 peptide: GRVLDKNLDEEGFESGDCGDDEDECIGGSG

T9: GPC3 peptide 521-550 (SEQ ID NO: 27) (human)
T9 construct: Synthetic 30-residue peptide of GPC3
T9 peptide: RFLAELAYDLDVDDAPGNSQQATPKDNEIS

T10: GPC3 peptide 551-580 (SEQ ID NO: 29) (human)
T10 construct: Synthetic 30-residue peptide of GPC3
T10 peptide: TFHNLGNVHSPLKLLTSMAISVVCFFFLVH

T11: GPC3 peptide 461-490 (SEQ ID NO: 24) (human)
T11 construct: Synthetic 30-residue peptide of GPC3
T11 peptide: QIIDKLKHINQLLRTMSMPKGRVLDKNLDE

T12: GPC3 peptide 281-310 (SEQ ID NO: 15) (human)
T12 construct: Synthetic 30-residue peptide of GPC3
T12 peptide: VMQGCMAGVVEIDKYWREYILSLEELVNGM

T13: GPC3 peptide 141-170 (SEQ ID NO: 8) (human)
T13 construct: Synthetic 30-residue peptide of GPC3
T13 peptide: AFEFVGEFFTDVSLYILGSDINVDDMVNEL

T14: GPC3 peptide 181-210 (SEQ ID NO: 10) (human)
T14 construct: Synthetic 30-residue peptide of GPC3
T14 peptide: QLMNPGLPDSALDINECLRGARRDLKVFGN

T15: GPC3 peptide 421-450 (SEQ ID NO: 22) (human)
T15 construct: Synthetic 30-residue peptide of GPC3
T15 peptide: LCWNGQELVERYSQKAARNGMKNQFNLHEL

T16: GPC3 peptide 121-150 (SEQ ID NO: 7) (human)
T16 construct: Synthetic 30-residue peptide of GPC3
T16 peptide: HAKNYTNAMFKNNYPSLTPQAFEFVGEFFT

T17: GPC3 peptide 261-290 (SEQ ID NO: 14) (human)
T17 construct: Synthetic 30-residue peptide of GPC3
T17 peptide: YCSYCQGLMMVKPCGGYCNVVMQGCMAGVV

T18: GPC3 peptide 21-50 (SEQ ID NO: 2) (human)
T18 construct: Synthetic 30-residue peptide of GPC3
T18 peptide: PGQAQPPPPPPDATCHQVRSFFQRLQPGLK

T19: GPC3 peptide 81-110 (SEQ ID NO: 5) (human)
T19 construct: Synthetic 30-residue peptide of GPC3
T19 peptide: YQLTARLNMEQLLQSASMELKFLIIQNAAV

T20: GPC3 peptide 221-250 (SEQ ID NO: 12) (human)
T20 construct: Synthetic 30-residue peptide of GPC3
T20 peptide: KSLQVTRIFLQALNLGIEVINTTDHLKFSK

T21: GPC3 peptide 441-470 (SEQ ID NO: 23) (human)
T21 construct: Synthetic 30-residue peptide of GPC3
T21 peptide: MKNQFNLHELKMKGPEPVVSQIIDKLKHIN

T22: GPC3 peptide 501-530 (SEQ ID NO: 26) (human)
T22 construct: Synthetic 30-residue peptide of GPC3
T22 peptide: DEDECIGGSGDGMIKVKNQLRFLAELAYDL

T23: GPC3 peptide 541-570 (SEQ ID NO: 28) (human)
T23 construct: Synthetic 30-residue peptide of GPC3
T23 peptide: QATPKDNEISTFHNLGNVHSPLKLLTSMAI

T24: GPC3 peptide 161-190 (SEQ ID NO: 9) (human)
T24 construct: Synthetic 30-residue peptide of GPC3
T24 peptide: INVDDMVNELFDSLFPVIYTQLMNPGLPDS

T25: GPC3 peptide 1-30 (SEQ ID NO: 1) (human)
T25 construct: Synthetic 30-residue peptide of GPC3
T25 peptide: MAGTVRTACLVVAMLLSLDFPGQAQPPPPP

T26: GPC3 peptide 401-430 (SEQ ID NO: 21) (human)
T26 construct: Synthetic 30-residue peptide of GPC3
T26 peptide: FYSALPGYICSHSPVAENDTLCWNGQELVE

T27: GPC3 peptide 41-70 (SEQ ID NO: 3) (human)
T27 construct: Synthetic 30-residue peptide of GPC3
T27 peptide: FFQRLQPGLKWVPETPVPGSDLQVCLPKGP

T28: GPC3 peptide 301-330 (SEQ ID NO: 16) (human)
T28 construct: Synthetic 30-residue peptide of GPC3
T28 peptide: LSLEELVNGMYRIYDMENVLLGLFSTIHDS

T29: GPC3 peptide 321-350 (SEQ ID NO: 17) (human)
T29 construct: Synthetic 30-residue peptide of GPC3
T29 peptide: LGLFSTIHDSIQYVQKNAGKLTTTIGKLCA

B1: GT607 antibody (antibody, IgG1, V domains shown)
VH: EVQLVESGGDVVRPGGSLKLSCAASGFTFSSYGMSWVRQLPDKRLEWVASVGNGGSYRYYPENLKGRFTISRDNTKNTLYLQISGLKSEDTAIYYCARRGAFPYFDVWGAGTTVTVSS
VL: QIVLTQSPAIMSASPGEKVTLACSASSSVTYMHWYQQKSGTSPKRWIYETSKLASGVPPRFSGSGSGTSYSLTISTMEAEDAATYYCQQWSSNPLTFGAGTKLELKR

Each binder was assayed against T30, AW2, C-terminally His-tagged recombinant product of positions 1 to 196 of GPC3 (human, UniProt P51654 25-196) (assay: Western blot, pellets of CHO cells expressing the product).
T30 construct: Expressed in CHO cells, cell pellets used in Western blot; The range is as printed and starts at position 1; also called AW2 (1-196); not shown: C-terminal His tag
T30 sequence (P51654 25-196): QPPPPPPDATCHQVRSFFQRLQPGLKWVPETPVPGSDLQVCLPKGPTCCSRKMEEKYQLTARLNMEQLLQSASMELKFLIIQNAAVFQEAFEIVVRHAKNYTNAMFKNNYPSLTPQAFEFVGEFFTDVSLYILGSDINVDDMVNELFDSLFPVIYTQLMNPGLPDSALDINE

binding result | Binder
no binding | B1

Biological target: T1, GPC3 peptide 61-90 (SEQ ID NO: 4)
Assay: peptide ELISA, peptide on plate

binding result | Binder
no binding (tested: 2 µg/mL) | B1

Biological target: T2, GPC3 peptide 341-370 (SEQ ID NO: 18)
Assay: peptide ELISA, peptide on plate

binding result | Binder
no binding (tested: 2 µg/mL) | B1

Biological target: T3, GPC3 peptide 201-230 (SEQ ID NO: 11)
Assay: peptide ELISA, peptide on plate

binding result | Binder
no binding (tested: 2 µg/mL) | B1

Biological target: T4, GPC3 peptide 241-270 (SEQ ID NO: 13)
Assay: peptide ELISA, peptide on plate

binding result | Binder
no binding (tested: 2 µg/mL) | B1

Biological target: T5, GPC3 peptide 361-390 (SEQ ID NO: 19)
Assay: peptide ELISA, peptide on plate

binding result | Binder
no binding (tested: 2 µg/mL) | B1

Biological target: T6, GPC3 peptide 101-130 (SEQ ID NO: 6)
Assay: peptide ELISA, peptide on plate

binding result | Binder
no binding (tested: 2 µg/mL) | B1

Biological target: T7, GPC3 peptide 381-410 (SEQ ID NO: 20)
Assay: peptide ELISA, peptide on plate

binding result | Binder
no binding (tested: 2 µg/mL) | B1

Biological target: T8, GPC3 peptide 481-510 (SEQ ID NO: 25)
Assay: peptide ELISA, peptide on plate

binding result | Binder
no binding (tested: 2 µg/mL) | B1

Biological target: T9, GPC3 peptide 521-550 (SEQ ID NO: 27)
Assay: peptide ELISA, peptide on plate

binding result | Binder
no binding (tested: 2 µg/mL) | B1

Biological target: T10, GPC3 peptide 551-580 (SEQ ID NO: 29)
Assay: peptide ELISA, peptide on plate

binding result | Binder
no binding (tested: 2 µg/mL) | B1

Biological target: T11, GPC3 peptide 461-490 (SEQ ID NO: 24)
Assay: peptide ELISA, peptide on plate

binding result | Binder
no binding (tested: 2 µg/mL) | B1

Biological target: T12, GPC3 peptide 281-310 (SEQ ID NO: 15)
Assay: peptide ELISA, peptide on plate

binding result | Binder
no binding (tested: 2 µg/mL) | B1

Biological target: T13, GPC3 peptide 141-170 (SEQ ID NO: 8)
Assay: peptide ELISA, peptide on plate

binding result | Binder
no binding (tested: 2 µg/mL) | B1

Biological target: T14, GPC3 peptide 181-210 (SEQ ID NO: 10)
Assay: peptide ELISA, peptide on plate

binding result | Binder
no binding (tested: 2 µg/mL) | B1

Biological target: T15, GPC3 peptide 421-450 (SEQ ID NO: 22)
Assay: peptide ELISA, peptide on plate

binding result | Binder
no binding (tested: 2 µg/mL) | B1

Biological target: T16, GPC3 peptide 121-150 (SEQ ID NO: 7)
Assay: peptide ELISA, peptide on plate

binding result | Binder
no binding (tested: 2 µg/mL) | B1

Biological target: T17, GPC3 peptide 261-290 (SEQ ID NO: 14)
Assay: peptide ELISA, peptide on plate

binding result | Binder
no binding (tested: 2 µg/mL) | B1

Biological target: T18, GPC3 peptide 21-50 (SEQ ID NO: 2)
Assay: peptide ELISA, peptide on plate

binding result | Binder
no binding (tested: 2 µg/mL) | B1

Biological target: T19, GPC3 peptide 81-110 (SEQ ID NO: 5)
Assay: peptide ELISA, peptide on plate

binding result | Binder
no binding (tested: 2 µg/mL) | B1

Biological target: T20, GPC3 peptide 221-250 (SEQ ID NO: 12)
Assay: peptide ELISA, peptide on plate

binding result | Binder
no binding (tested: 2 µg/mL) | B1

Biological target: T21, GPC3 peptide 441-470 (SEQ ID NO: 23)
Assay: peptide ELISA, peptide on plate

binding result | Binder
no binding (tested: 2 µg/mL) | B1

Biological target: T22, GPC3 peptide 501-530 (SEQ ID NO: 26)
Assay: peptide ELISA, peptide on plate

binding result | Binder
no binding (tested: 2 µg/mL) | B1

Biological target: T23, GPC3 peptide 541-570 (SEQ ID NO: 28)
Assay: peptide ELISA, peptide on plate

binding result | Binder
no binding (tested: 2 µg/mL) | B1

Biological target: T24, GPC3 peptide 161-190 (SEQ ID NO: 9)
Assay: peptide ELISA, peptide on plate

binding result | Binder
no binding (tested: 2 µg/mL) | B1

Biological target: T25, GPC3 peptide 1-30 (SEQ ID NO: 1)
Assay: peptide ELISA, peptide on plate

binding result | Binder
no binding (tested: 2 µg/mL) | B1

Biological target: T26, GPC3 peptide 401-430 (SEQ ID NO: 21)
Assay: peptide ELISA, peptide on plate

binding result | Binder
no binding (tested: 2 µg/mL) | B1

Biological target: T27, GPC3 peptide 41-70 (SEQ ID NO: 3)
Assay: peptide ELISA, peptide on plate

binding result | Binder
no binding (tested: 2 µg/mL) | B1

Biological target: T28, GPC3 peptide 301-330 (SEQ ID NO: 16)
Assay: peptide ELISA, peptide on plate

binding result | Binder
no binding (tested: 2 µg/mL) | B1

Biological target: T29, GPC3 peptide 321-350 (SEQ ID NO: 17)
Assay: peptide ELISA, peptide on plate

binding result | Binder
no binding (tested: 2 µg/mL) | B1
